According to patent US20230242653A1 (TENEOBIO, published 2023):
Positions count from the first letter of the chain named.

B1: IL2RB_F09G**IL2RG_F16B (bispecific antibody, human IgG4, V domains shown)
V domain 1: QVQLQESGPGLVKSSETLSLTCTVSGGSISSSDWWSWVRQPPGKGLEWIGEIDHSGSTNYNPSLMSRVTISVDKSKNQFSLKLSSVTAADTAVYFCARGSWELTDAFDIRGQGTLVTVSS
V domain 2: QVQLVESGGGLVKPGGSLRLSCAASGFTFSDYYMSWIRQAPGKGLEWVSYISSSGSTIYYADSVKGRFTISRDNAKNSLYLQMNSLRAEDTAVYYCARGDAVSITGDYRGQGTLVTVSS
notes: Bispecific heavy chain-only UniAb on silenced, stabilized human IgG4 Fc without CH1, knobs-into-holes; also called BsAb-2; not shown: C-terminal His-tag on the knob chain
B2: IL2RB_F18E**IL2RG_F16A (bispecific antibody, human IgG4, V domains shown)
V domain 1: QVQLVESGGGVVQPGRSLRLSCAASGFTFSSYGMHWVRQAPGKEREWVAVISYDGSNKYYTDSVKGRFTISRDNSKNTLYLEMNSLRAEDTAVYYCARDLDYDVLTGDPVGGFDIWGQGTLVTVSS
V domain 2: B1 V domain 2 with Y50S, S56D, K65Q, I70L, K76E, Y80F
notes: Bispecific heavy chain-only UniAb on silenced, stabilized human IgG4 Fc without CH1, knobs-into-holes; also called BsAb-6; not shown: C-terminal His-tag on the knob chain
B3: IL2RB_F09G**IL2RG_F18A (bispecific antibody, human IgG4, V domains shown)
V domain 1: B1 V domain 1
V domain 2: QVQLVESGGDLVKPGGSLRLSCAASGFTFSDYYMSWLRQAPGKELEWVSHISSSGTTTYYADSVEGRFTITRDNAKNSLYLQMNSLRAEDTAVYYCARGAAVAPGFDSRGQGTLVTVSS
notes: Bispecific heavy chain-only UniAb on silenced, stabilized human IgG4 Fc without CH1, knobs-into-holes; also called BsAb-4; not shown: C-terminal His-tag on the knob chain
B4: IL2RB_F09K**IL2RG_F16B (bispecific antibody, human IgG4, V domains shown)
V domain 1: B1 V domain 1 with G8S, S14P, D33N, D53S, M65K, K82R, A97G
V domain 2: B1 V domain 2
notes: Bispecific heavy chain-only UniAb on silenced, stabilized human IgG4 Fc without CH1, knobs-into-holes; also called BsAb-5; not shown: C-terminal His-tag on the knob chain
B5: IL2RB_F09C**IL2RG_F16A (bispecific antibody, human IgG4, V domains shown)
V domain 1: B1 V domain 1 with S14P, E16G, T23A, A97G, T104S
V domain 2: B1 V domain 2 with Y50S, S56D, K65Q, I70L, K76E, Y80F
notes: Bispecific heavy chain-only UniAb on silenced, stabilized human IgG4 Fc without CH1, knobs-into-holes; also called BsAb-1; not shown: C-terminal His-tag on the knob chain
B6: IL2RB_F09G**IL2RG_F16C (bispecific antibody, human IgG4, V domains shown)
V domain 1: B1 V domain 1
V domain 2: B1 V domain 2 with S30N, Y50H, I70V, K76N, N84H
notes: Bispecific heavy chain-only UniAb on silenced, stabilized human IgG4 Fc without CH1, knobs-into-holes; also called BsAb-3; not shown: C-terminal His-tag on the knob chain

The binders below were run against T1, IL-7R (Sino Biological) (UniProt P16871 21-239) (assay: Octet BLI off-rate analysis, antibody on AHC sensors).
T1 sequence (looked up): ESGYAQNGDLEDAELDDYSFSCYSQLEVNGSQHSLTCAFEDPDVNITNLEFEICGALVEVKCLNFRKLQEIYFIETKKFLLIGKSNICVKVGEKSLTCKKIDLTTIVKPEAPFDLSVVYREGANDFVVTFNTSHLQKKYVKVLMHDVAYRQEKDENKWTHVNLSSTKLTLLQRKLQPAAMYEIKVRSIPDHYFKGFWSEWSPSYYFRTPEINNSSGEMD
Method: (§1) All off-rate measurements were performed on an Octet Qk384 instrument (ForteBio), in 96-well microplates at 25° C. using anti-human IgG Fc capture (AHC, 18-5005) sensors with a shake speed of 1000 rpm. For off-rate determination, the antibodies were loaded on the AHC sensors at 5 µg/mL. Following a short baseline in kinetics buffer (0.02% Tween20, 0.1% BSA, 0.05% sodium azide, 1X PBS). Offrate measurements were done for the following: human IL-2Rβ (AcroBiosystems), human IL- 2Ry (Sino Biological), cynomolgus IL-2Rβ (Sino Biological), cynomolgus IL-2Rγ (expressed and purified in house using ExpiCHO expression system followed by Ni-NTA His-tag purification), mouse IL-2Rγ (Sino Biological), mouse IL-2Rβ (Sino Biological), human IL-2Rα (Sino Biological), IL-4R (Sino Biological), IL-7R (Sino Biological), IL-9R (R&D Systems) and IL-21R (Sino Biological). The following antibodies were used as positive controls to verify target binding and reagent quality: anti-human IL-9R (R&D Systems), anti-human IL-21R (R&D Systems), anti-human IL-7R (R&D Systems) and anti-human IL-4Ra (R&D Systems). The loaded sensors were then submerged in wells containing antigen at 100 nM concentration for association step. Dissociation was monitored in kinetics buffer. The capture surfaces were regenerated for 60 s. ForteBio data analysis software was used to fit the data to a 1:1 binding model to extract an association rate and dissociation rate.

Row | Binder | binding result
1 | B1 | no binding (tested: 100 nM antigen)
2 | B2 | no binding (tested: 100 nM antigen)
3 | B3 | no binding (tested: 100 nM antigen)
4 | B4 | no binding (tested: 100 nM antigen)
5 | B5 | no binding (tested: 100 nM antigen)
6 | B6 | no binding (tested: 100 nM antigen)

What follows are binders tested against IL-21R (Sino Biological) (UniProt Q9HBE5 20-232) in the same assay as above.
Sequence of IL-21R (Sino Biological) (Q9HBE5 20-232 limits assumed): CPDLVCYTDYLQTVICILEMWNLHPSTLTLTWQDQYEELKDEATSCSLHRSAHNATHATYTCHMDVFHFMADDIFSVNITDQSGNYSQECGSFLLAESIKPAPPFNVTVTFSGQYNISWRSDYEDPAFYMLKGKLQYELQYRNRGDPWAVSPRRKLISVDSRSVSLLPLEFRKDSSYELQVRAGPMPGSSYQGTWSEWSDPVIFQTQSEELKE
Method: as §1

Row | Binder | binding result
7 | B1 | no binding (tested: 100 nM antigen)
8 | B2 | no binding (tested: 100 nM antigen)
9 | B3 | no binding (tested: 100 nM antigen)
10 | B4 | no binding (tested: 100 nM antigen)
11 | B5 | no binding (tested: 100 nM antigen)
12 | B6 | no binding (tested: 100 nM antigen)

The binders below were run against T2, IL-9R (R&D Systems) (UniProt Q01113 41-270, limits assumed) in the same assay as above.
T2 sequence (looked up): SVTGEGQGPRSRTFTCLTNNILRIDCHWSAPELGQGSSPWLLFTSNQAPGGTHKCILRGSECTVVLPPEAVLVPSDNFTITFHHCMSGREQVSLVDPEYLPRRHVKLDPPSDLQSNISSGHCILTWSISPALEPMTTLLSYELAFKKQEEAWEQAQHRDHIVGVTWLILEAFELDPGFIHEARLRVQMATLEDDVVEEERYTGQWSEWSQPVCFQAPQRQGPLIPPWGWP
Method: as §1

Row | Binder | binding result
13 | B1 | no binding (tested: 100 nM antigen)
14 | B2 | no binding (tested: 100 nM antigen)
15 | B3 | no binding (tested: 100 nM antigen)
16 | B4 | no binding (tested: 100 nM antigen)
17 | B5 | no binding (tested: 100 nM antigen)
18 | B6 | no binding (tested: 100 nM antigen)

These binders were tested against T3, human IL-2Rα (Sino Biological) (human, UniProt P01589 22-213, limits assumed) in the same assay as above.
T3 construct: also called IL2RA; IL-2RA
T3 sequence: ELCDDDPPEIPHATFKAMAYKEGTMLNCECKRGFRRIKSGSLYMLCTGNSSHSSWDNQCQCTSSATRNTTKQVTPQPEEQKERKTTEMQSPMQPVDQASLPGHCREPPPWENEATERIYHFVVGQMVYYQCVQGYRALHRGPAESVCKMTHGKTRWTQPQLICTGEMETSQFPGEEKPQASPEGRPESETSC
Method: as §1

Row | Binder | binding result
19 | B1 | no binding (tested: 100 nM antigen)
20 | B2 | no binding (tested: 100 nM antigen)
21 | B3 | no binding (tested: 100 nM antigen)
22 | B4 | no binding (tested: 100 nM antigen)
23 | B5 | no binding (tested: 100 nM antigen)
24 | B6 | no binding (tested: 100 nM antigen)

What follows are binders tested against T4, IL-4R (Sino Biological) (UniProt P24394 26-232) in the same assay as above.
T4 construct: also called IL-4Ra
T4 sequence (looked up): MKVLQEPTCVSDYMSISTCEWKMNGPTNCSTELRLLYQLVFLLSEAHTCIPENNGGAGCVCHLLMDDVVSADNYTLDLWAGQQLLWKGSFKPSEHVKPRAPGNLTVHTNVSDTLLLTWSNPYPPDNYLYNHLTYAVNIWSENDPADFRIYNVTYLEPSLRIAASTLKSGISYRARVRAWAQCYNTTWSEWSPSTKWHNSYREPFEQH
Method: as §1

Row | Binder | binding result
25 | B1 | no binding (tested: 100 nM antigen)
26 | B2 | no binding (tested: 100 nM antigen)
27 | B3 | no binding (tested: 100 nM antigen)
28 | B4 | no binding (tested: 100 nM antigen)
29 | B5 | no binding (tested: 100 nM antigen)
30 | B6 | no binding (tested: 100 nM antigen)

These binders were tested against T5, human IL-2Rβγ receptor (IL-2RB / IL-2RG) on human T-cells (human, UniProt P14784 27-551; P31785 23-369) (assay: flow cytometry, human CD4+ T-cells, anti-human IgG-PE detection, gMFI as fold over secondary-only background).
T5 construct: also called IL2RB/IL2RG dimeric receptor complex
T5 sequence 1: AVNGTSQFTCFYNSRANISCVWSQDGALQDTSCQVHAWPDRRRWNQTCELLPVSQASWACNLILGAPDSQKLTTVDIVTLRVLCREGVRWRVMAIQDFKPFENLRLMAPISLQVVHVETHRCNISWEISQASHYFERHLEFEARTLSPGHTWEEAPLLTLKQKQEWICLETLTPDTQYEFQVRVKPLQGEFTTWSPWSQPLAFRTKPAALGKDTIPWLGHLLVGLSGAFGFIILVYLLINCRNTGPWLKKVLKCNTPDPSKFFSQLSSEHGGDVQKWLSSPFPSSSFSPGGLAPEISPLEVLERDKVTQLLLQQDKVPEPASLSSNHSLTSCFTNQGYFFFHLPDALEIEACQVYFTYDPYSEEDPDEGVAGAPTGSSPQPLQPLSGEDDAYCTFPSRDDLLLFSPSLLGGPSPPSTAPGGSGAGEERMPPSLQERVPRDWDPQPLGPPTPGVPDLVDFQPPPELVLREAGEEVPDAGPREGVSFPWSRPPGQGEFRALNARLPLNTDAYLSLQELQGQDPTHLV
T5 sequence 2: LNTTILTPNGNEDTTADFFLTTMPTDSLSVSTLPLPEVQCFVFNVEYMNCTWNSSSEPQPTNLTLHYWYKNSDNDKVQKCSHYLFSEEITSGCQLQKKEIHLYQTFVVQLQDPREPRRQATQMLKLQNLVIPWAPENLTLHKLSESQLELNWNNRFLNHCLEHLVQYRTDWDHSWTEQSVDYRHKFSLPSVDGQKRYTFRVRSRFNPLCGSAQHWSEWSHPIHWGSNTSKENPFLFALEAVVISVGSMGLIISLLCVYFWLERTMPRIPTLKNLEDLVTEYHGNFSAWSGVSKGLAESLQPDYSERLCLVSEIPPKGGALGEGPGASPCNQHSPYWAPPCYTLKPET
Method: (§2) All washes and dilutions of cells, antibodies, and reagents were performed using flow buffer (1X PBS, 1% BSA, 0.1% NaN3, pH 7.4). Staining was performed in a round-bottom 96-well plate (Corning) seeded at 100,000 cells/well and all incubations were performed at 4° C. or on ice. […] The cells were washed twice with 200 µL flow buffer. The cells were then incubated for 30 minutes with detection antibody (Goat F(ab′)2 Anti-Human IgG-PE, Southern Biotech) at 0.625 µg/mL in flow buffer. Following 2 more washes, the cells were resuspended in a final volume of 150 µL of flow buffer. The cells were analyzed on a BD FACSCelesta or a Guava easyCyte 8-HT flow cytometer. At least 3000 events were collected, and PE geometric mean fluorescence intensity was plotted as a fold over background (cells incubated with secondary detection antibody only). In some secondary screens involving human or cynomolgus PBMCs, an additional CD4 antibody (BioLegend) and/or CD8 antibody (BioLegend) was included to further characterize cell binding.

Row | Binder | EC50 (read off the curve) [nM]
31 | B1 | ~5
32 | B5 | ~5
33 | B6 | ~6

Each binder was assayed against T5, human IL-2Rβγ receptor (IL-2RB / …) (assay: flow cytometry, human CD8+ T-cells, anti-human IgG-PE detection, gMFI as fold over secondary-only background).
Method: as §2

Row | Binder | EC50 (read off the curve) [nM]
34 | B6 | ~6

Each binder was assayed against cynomolgus IL-2Rβγ receptor (IL-2RB / IL-2RG) on cynomolgus T-cells (cynomolgus, UniProt Q38J85 27-551) (assay: flow cytometry, cynomolgus CD8+ T-cells, anti-human IgG-PE detection, gMFI as fold over secondary-only background).
Sequence of cynomolgus IL-2Rβγ receptor (IL-2RB / IL-2RG) on cynomolgus T-cells (Q38J85 27-551): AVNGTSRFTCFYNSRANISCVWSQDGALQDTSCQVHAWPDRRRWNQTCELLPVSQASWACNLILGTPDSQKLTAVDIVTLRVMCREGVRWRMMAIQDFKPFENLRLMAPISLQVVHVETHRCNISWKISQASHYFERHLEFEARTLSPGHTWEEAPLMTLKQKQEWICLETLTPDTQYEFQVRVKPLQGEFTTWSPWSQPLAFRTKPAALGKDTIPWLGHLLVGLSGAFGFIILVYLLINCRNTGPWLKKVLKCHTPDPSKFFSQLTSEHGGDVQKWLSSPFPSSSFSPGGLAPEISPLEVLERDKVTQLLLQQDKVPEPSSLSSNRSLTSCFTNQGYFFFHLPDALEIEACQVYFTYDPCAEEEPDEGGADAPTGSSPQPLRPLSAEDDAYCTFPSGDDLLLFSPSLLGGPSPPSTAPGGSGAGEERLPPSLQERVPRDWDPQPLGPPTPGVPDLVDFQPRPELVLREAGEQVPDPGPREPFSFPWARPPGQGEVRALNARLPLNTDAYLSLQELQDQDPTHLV
Method: as §2

Row | Binder | EC50 (read off the curve) [nM]
35 | B4 | ~5
